{"source": "the nanobody polyreactivity screen of Harvey et al. (2022)"}
{"assay": "yeast display, Sf9 membrane polyspecificity reagent, FACS + sequencing; frameworks hold sequencing errors", "outline": "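Nanobodies from a synthetic yeast display library (Saccharomyces cerevisiae BJ5465), induced 36–48 hours with galactose, were stained 1 hour at 4 °C with 10% biotinylated, detergent-solubilized Sf9 membrane reagent, enriched on streptavidin microbeads, then FACS-sorted. Anti-HA (expression) and streptavidin (reagent binding) fluorescence set low and high (top ~1%) gates. Polyreactivity labels come from the gate of origin. Genes were colony-PCR amplified, MiSeq 2 × 250 sequenced and filtered by CDR length.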"}
{"sequence": "QVQLVESGGGLVHAGGSLRLSCAASGSTEYNAMGWYRQSPGTQRELVAVITDSDGSTYYADSVKGRYTISRDNAKHTVYLQMNSLKREDTAVYYCAADDYAYSYGYWLTYDYWGQGPQVTVSS", "polyreactivity (PSR sort gate)": "low polyreactivity"}
{"sequence": "QVQLVESGGGLVHAGGSLRLSCAASGSTFDGYTMGWYRQAPGTERELVAAITDSGGSTYYADSVKGRFTISRDKAKNTVYLQMNSQKPEDTAVYYFAAAVPELYEVRYHDDYWGQGTQVTVSS", "polyreactivity (PSR sort gate)": "low polyreactivity"}
{"sequence": "QVQLVESGGGLVHAGGSLRLSCAASGSTFFLYAMGWYRQAHGKERELVAAISSDGSTYYADSVKGRFTISRDNAKHTVYLQMNSLKPEDTAVYYCAAEYTPSYYEYYYWGQGTQVTVSS", "polyreactivity (PSR sort gate)": "low polyreactivity"}
{"sequence": "QVQLVESGGGLVHAGGSLRLSCAASGSTFHYYAMGWYRQPPGKERELDAGITSGGGRTYADSVKGRFTISRDNAKITVYLQMNSLNPEDTAVYYCNARPSTGWTIYGVDYWGQGTQVTVSS", "polyreactivity (PSR sort gate)": "low polyreactivity"}
{"sequence": "QVQLVESGGGLVHAGGSLRLSCAASGSTFKYYAMGWYRQAPGKERELVAAISSGNSTYYADSVKGRFTISRDNAKNTVYLQMNSLKPEDTAVYYCAAYWRRDPMDYWGQGTQVTVSS", "polyreactivity (PSR sort gate)": "high polyreactivity"}
{"sequence": "QVQLVESGGGLVHAGGSLRLSCAASGSTFLSYAMGWYRQAPGKEREFVAAISWSDVNTYYADSVKGRFTISRDNAKNTVYLQMISLKPEDTAVYYCAAYYPSHDYSGFWSDTYEYWGQGTQVTVSS", "polyreactivity (PSR sort gate)": "low polyreactivity"}
{"sequence": "QVQLVESGGGLVHAGGSLRLSCAASGSTFNTNTMGWYRQAPGKERELVAAITKSGGSTYYADSVKGRFTISRDNAKNTVYLQMNSLKPEDTAVYYCNAYPDDSYKYLYWSDGDYWGQGTQVTVSS", "polyreactivity (PSR sort gate)": "low polyreactivity"}
{"sequence": "QVQLVESGGGLVHAGGSLRLSCAASGSTFSWYVMGWYRQAPGKERELVAAISYRGGRTYYADSVKGRFTISRDNAKNTVYLQMNSLKPEDTAVYYCAARGVVDAGRTNRPYDYWGQGTQVTVSS", "polyreactivity (PSR sort gate)": "low polyreactivity"}
{"sequence": "QVQLVESGGGLVHAGGSLRLSCAASGSTFYSYAMGGYRQAPGKERELVAAISRSGGRTYYADSVKGRFTISRDIAKNTVYLQMKSLKPEDTAVYYCNAVNSVTTSTRTRAKYAAYDSWGQGTQVTVSS", "polyreactivity (PSR sort gate)": "high polyreactivity"}
{"sequence": "QVQLVESGGGLVHAGGSLRLSCAASGSTYRANSMGWYRQAPGKERELVAAITRRGGSTYYADSVKGRFTISRDNAKNTVYLQMNSLKPEDTAVYYCAAASRYGEGDYWGQGTQVTVSS", "polyreactivity (PSR sort gate)": "high polyreactivity"}
{"sequence": "QVQLVESGGGLVHAGGSLRLSCAASGTTLAIYAMGWYRQAPGKERELVASISRVGSTNYADSVKGRFTISRDNAKNTVYLQRNSLKPEDTAVYYCAARRSSYVILRAYYYWGQGTQVTVSS", "polyreactivity (PSR sort gate)": "high polyreactivity"}
{"sequence": "QVQLVESGGGLVHAGGSLRLSCAAYGSTSLVNAMGWYRQAPGKERELVAAITRGGNTYYADSVKGRFTISRDNAKNTVYLQMNSLKPEDTAVYYCAAEDHTEQGQYDYWGQGTQVTVSS", "polyreactivity (PSR sort gate)": "low polyreactivity"}
{"sequence": "QVQLVESGGGLVHAGGSLRLSCAPSGSTFDDYTMGWYRPAPGKERELVAAISSAGSTNYADSVKGRFTISRDNAKNTVYLQMNSLKPEDTAVYYCAAQVHPIRYDYWGQGTQVTVSS", "polyreactivity (PSR sort gate)": "low polyreactivity"}
{"sequence": "QVQLVESGGGLVHAGGSLRLSFAASGRTFQVYAMGWSRQAPGKERELVAAITSLGGTYYADSVKGRFTISRYNAKNTVYLQMNSLKPEDTAVYYCAARARSTPRKYYYTRGYWGQGTQVTVSS", "polyreactivity (PSR sort gate)": "high polyreactivity"}
{"sequence": "QVQLVESGGGLVHAGGSLRLSSAASGRIFWYYALGWYRQPPGKERELVASIRGSGGSTYADSVKGRFTVSRENAKNTVYLPMNSLKPEDTAVYYCAASGRQRGHPMYYWRQGTQVTVSS", "polyreactivity (PSR sort gate)": "high polyreactivity"}
{"sequence": "QVQLVESGGGLVHAGGSLRLSSAASGRTFKVYAMGWYRQAPGKERELVAAITGGGSTNYADSVKGRFTISRDNAKNTVYLQMYSLKPEDTAVYYCNARYYYRLVKWSRFSSYDYWGQGTQVTVSS", "polyreactivity (PSR sort gate)": "low polyreactivity"}
{"sequence": "QVQLVESGGGLVHAGGSLRLSSAPSGSTFQAYAMGWYRAAPGKERELVAAINEGDSRTYYADSVKGRFTISRDNAKNTVYLPMNSQKPEDTAVYYCAIGNFRPYDYWGQGTQVTVSS", "polyreactivity (PSR sort gate)": "low polyreactivity"}
{"sequence": "QVQLVESGGGLVHAGGSLRLTCAASGSTFGKYAMGWYRQAPGKERELVAAITWSGASTFYADSVKGRFTISRDNAKNTVYLQMNSMKPEDTAGYYCAARSFKSYYIFDYWGQGTQVTVSS", "polyreactivity (PSR sort gate)": "low polyreactivity"}
{"sequence": "QVQLVESGGGLVHAGGSLSLSCAASGFILGVYAMGWYRQEPGKERELVAAITFTGASTYYADSVKGRFTLSRDNAKNTVYLQMNSLKPEDTAVNYCNKSSAYYRYEYWGQGTQVTVSS", "polyreactivity (PSR sort gate)": "low polyreactivity"}
{"sequence": "QVQLVESGGGLVHAGGSLSLSCAASGRTFRQYAMGWYRQAHGKERELVAAISKGGGSTYYADSEKGRFTISRDNAKNTVYLQMNSLKPEVKAVYYCNAPGYVLKGYDYWGQGTQVTVSS", "polyreactivity (PSR sort gate)": "high polyreactivity"}
{"sequence": "QVQLVESGGGLVKAGASLRLSCAASGRTFRHNARGWYRQAPGKERELVAAITIGTNTYYADSVKGRFTISRDNAKNTVYLQMNSLKPEDTEVYYCAAVKDRYAYVPPRFDYWGQGSQVTVSS", "polyreactivity (PSR sort gate)": "low polyreactivity"}
{"sequence": "QVQLVESGGGLVKAGCSLRLSCAASGRTFGTYAMGWYRQAPGKERELVAAISSGGSTYADSVKGRFTISRDNAMNTVYLQMKSLKPEDTAVYYCTTRYPMGGTYTRYPLKGDYWGQGTQVTVSS", "polyreactivity (PSR sort gate)": "high polyreactivity"}
{"sequence": "QVQLVESGGGLVKAGCSLRLTCAASARTFRWYAMGWYRQAPGKERELVATISWSSGRTRYADSVKGRFTISRDNANNTVYLQMNSLKPEETAVYYCNADQWDKSYDYWGQGSQVTVSS", "polyreactivity (PSR sort gate)": "high polyreactivity"}
{"sequence": "QVQLVESGGGLVKAGGCLRISCAASGRIFGSYAMGWYREAPGIERELVASIRSGGRTKYADSVKGRFTISRDNAKKTVYLQMNSLKPEDTAVYYCDVPIQWDYGYWGQGTQVTVSS", "polyreactivity (PSR sort gate)": "low polyreactivity"}
{"sequence": "QVQLVESGGGLVKAGGSIRISCAPSGRIFNQYGIGRNRQAPGKEMELVDAIRSGDSTNYADSVKGRFTISRDNAKNTFYLQMNRLKPEDTAVYFCARDRPGDYAGSDYWGQGTQVTVSS", "polyreactivity (PSR sort gate)": "low polyreactivity"}
{"sequence": "QVQLVESGGGLVKAGGSLGLSCAASGSIFGVNAMGWYRQAPGKERELVAAISKRGGTTYYADSVKGRFTISRDNAKNTVYVQRHSLKPEDTAVYYCNAPYLWNYYGGRYDYWGQGTQVTVSS", "polyreactivity (PSR sort gate)": "high polyreactivity"}
{"sequence": "QVQLVESGGGLVKAGGSLRISCAASGRIFGYNAMGWYRQAPGKERELVAVISTSGTITYYADSVKGRFTISRDNAKNTVYLQMNSLKPEDTAVYYCAARYYQRANGFGYWGQGTQVTVSS", "polyreactivity (PSR sort gate)": "low polyreactivity"}
{"sequence": "QVQLVESGGGLVKAGGSLRLICDASGRTFYSYAMGWYRQAPGKERELVAAINTSGGRTHYADSVKGRFTISRDNAKYTVYLHMNSLKAEDTAVYYCAAERKNKYDYWGQGTQVTVSS", "polyreactivity (PSR sort gate)": "high polyreactivity"}
{"sequence": "QVQLVESGGGLVKAGGSLRLRCAASGSIFRYYVMGWYRQAPGKERELVAAISGGSTYYADSVKGRFTISRDNAKNTVYLQLNSLKPEDTAVYYSAARGKRRSGGENYAYGYWGQGTQVTVSS", "polyreactivity (PSR sort gate)": "high polyreactivity"}
{"sequence": "QVQLVESGGGLVKAGGSLRLSCAASGFNFGGNVMGWYRQAPGKERELVAAITYSGGSTYYADSVKGRFTISRDNAKNTVYLQMNSLKPEDTAVYYCAAVQRKYYIDPAYDYWGQGTQVTVSS", "polyreactivity (PSR sort gate)": "low polyreactivity"}
{"sequence": "QVQLVESGGGLVKAGGSLRLSCAASGFTFGYYTMGWYRQAPGKERELVAAISSSGGSTHYADSVKGRFTISRDNAKNTVYLQMNSLKPEDTAVYYCAARYINRYPKAQPTDRSIYYWGQGTQVTVSS", "polyreactivity (PSR sort gate)": "high polyreactivity"}
{"sequence": "QVQLVESGGGLVKAGGSLRLSCAASGLISAVYALGWYRQAPGKERELVAAITTSGGRTYYADSVKGRFTISRDNAKNTVYLQMNSLKPEDTAVYYCAAEHVRYLNPEFDYWGQGTQVTVSS", "polyreactivity (PSR sort gate)": "high polyreactivity"}
{"sequence": "QVQLVESGGGLVKAGGSLRLSCAASGLTFYFYAMGWYRQAPGKERELVAGIRKRGGGTYYADSVKGRFTISRDNAKNTVYLQMNSLKPEDTAVYYCAKEPGWGRRSTTAYDYWGQGTQVTVSS", "polyreactivity (PSR sort gate)": "low polyreactivity"}
{"sequence": "QVQLVESGGGLVKAGGSLRLSCAASGRIFGRYAMGWYRQAPGKEREFVAAISKRGGGTYYADSVKGRFTISRDNAKNTVYLQMNSLKPEDTAVYYCAVDNSPGFDDYDYWGQGTQVTVSS", "polyreactivity (PSR sort gate)": "high polyreactivity"}
{"sequence": "QVQLVESGGGLVKAGGSLRLSCAASGRIFKYYAMGWYRQAPGKERELVAAISSVGSTNYADSVKGRFTISRDNAKNTVYLQMNSLKPEDTGVYYCAAPYQHYDVNYDSWGQGTQVTVSS", "polyreactivity (PSR sort gate)": "low polyreactivity"}
{"sequence": "QVQLVESGGGLVKAGGSLRLSCAASGRIFTANAMGWYRQAPGKEREFVAAITTSDGTYYADSVKGRFTISRDNAKNTVYLQMNSLKPEDTAVYYGATDTATYPTAMDYWGQGTQVTVSS", "polyreactivity (PSR sort gate)": "low polyreactivity"}
{"sequence": "QVQLVESGGGLVKAGGSLRLSCAASGRIFVGYGMGWYRQAPGKERELVAAITSSGGSTYYADSVKGRFTISRDNAKNTVYLQMNILKPEDTAVYYCAAERGYHVGGSGLYDYWGQGTQVNVSS", "polyreactivity (PSR sort gate)": "low polyreactivity"}
{"sequence": "QVQLVESGGGLVKAGGSLRLSCAASGRIIEKYAMGWYRQAHGKEREFVAAIDWSGGSTYYADSVKGRFTISRDNAKNTVSLQKNSLKPEDTAVYYCAAYWYYEDGQSEARLYGYDYWGQGTQVTVSS", "polyreactivity (PSR sort gate)": "low polyreactivity"}
{"sequence": "QVQLVESGGGLVKAGGSLRLSCAASGRTFASYAMGWYRQAPGKERELVAVITRGGRTYYADSVKGRFTISRDNAKNTVYLQMNSLKPEDTAVYYCNAAYYSSSYLEDYWGQGTQVTVSS", "polyreactivity (PSR sort gate)": "high polyreactivity"}
{"sequence": "QVQLVESGGGLVKAGGSLRLSCAASGRTFGDNAMGWYRQAPGKERELVAAIRWGGGSTYYADSVKGRFTISRDNAKNTVYLQMNSLKPEDTAVYYCAKKGWSSHDRAWYIYDYWGQGSQVTVSS", "polyreactivity (PSR sort gate)": "low polyreactivity"}
